Source: IntAct's records for PubMed 21471201

B1: NAD-dependent protein deacetylase sirtuin-1 (Homo sapiens), Q96EB6 (parent)
chain: MADEAALALQPGGSPSAAGADREAASSPAGEPLRKRPRRDGPGLERSPGEPGGAAPEREVPAAARGCPGAAAAALWREAEAEAAAAGGEQEAQATAAAGEGDNGPGLQGPSREPPLADNLYDEDDDDEGEEEEEAAAAAIGYRDNLLFGDEIITNGFHSCESDEEDRASHASSSDWTPRPRIGPYTFVQQHLMIGTDPRTILKDLLPETIPPPELDDMTLWQIVINILSEPPKRKKRKDINTIEDAVKLLQECKKIIVLTGAGVSVSCGIPDFRSRDGIYARLAVDFPDLPDPQAMFDIEYFRKDPRPFFKFAKEIYPGQFQPSLCHKFIALSDKEGKLLRNYTQNIDTLEQVAGIQRIIQCHGSFATASCLICKYKVDCEAVRGDIFNQVVPRCPRCPADEPLAIMKPEIVFFGENLPEQFHRAMKYDKDEVDLLIVIGSSLKVRPVALIPSSIPHEVPQILINREPLPHLHFDVELLGDCDVIINELCHRLGGEYAKLCCNPVKLSEITEKPPRTQKELAYLSELPPTPLHVSEDSSSPERTSPPDSSVIVTLLDQAAKSNDDLDVSESKGCMEEKPQEVQTSRNVESIAEQMENPDLKNVGSSTGEKNERTSVAGTVRKCWPNRVAKEQISRRLDGNQYLFLPPNRYIFHGAEVYSDSEDDVLSSSSCGSNSDSGTCQSPSLEEPMEDESEIEEFYNGLEDEPDVPERAGGAGFGTDGDDQEAINEAISVKQEVTDMNYPSNKS

Variants of: B1
Conditions: with rptor_human RPTOR

Variant | effect of a mutation on the interaction
F474A | decreasing interaction
